Laboratory results as given in the supplement of paper PMC10567573.

B1: RBBP5 (parent)
chain: TGTSNTTAIKSIEFARKGSCFLIN
B2: KRT34 (parent)
chain: YQSYFKTIEELQQKILCAKAENAR

Variants of: B1
Experiment: protein stability index of a GFP-peptide fusion (GPS, HEK-293T) (PSI 1-6); higher = more stable
Conditions: c terminus: a fixed tail appended
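Also: lentivirally expressed fusions sorted by FACS into six bins by GFP to DsRed ratio, PSI derived from sequencing read proportions per bin multiplied by bin number.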

Protein stability index of substitutions, site by site:
F21: K 3.48 | A 3.36 | T 3.5 | E 3.73 | Q 3.17 | P 3.13 | G 3.35 | D 3.83
A15: F 2.52 | V 1.66 | Y 1.74 | P 2.46 | N 2.67 | L 2.58 | G 2.38 | W 2.23 | S 2.09 | C 1.89
T7: G 2.56 | P 2.74 | D 2.3 | L 1.77 | V 1.96 | E 2.51 | W 1.95 | N 2.14 | Y 1.89
E13: Q 1.67 | H 2.4 | W 2.23 | F 2.75 | V 1.54
S19: K 2.92 | W 1.94 | L 2.56 | V 2.25 | Q 2.24 | M 1.59 | N 2.17
R16: E 3 | M 1.75 | K 2.76 | F 2.26
A8: T 2.68 | D 2.36 | P 2.69 | L 2.17 | S 2.01 | G 2.84 | I 1.74 | F 1.81
S11: D 2.6 | H 3.02
N24: H 2.35 | C 2.38 | T 1.76 | G 2.27 | E 3.01 | L 2.22 | Q 1.79
K10: N 1.86 | Y 3.11 | M 1.94 | L 2.74 | C 2.38
K17: A 2.24 | L 1.75 | T 2.46 | D 2.7 | Y 2.22 | H 2.33 | Q 2.5 | S 2.47
N5: M 1.66 | F 2.2 | C 1.93 | H 2.12 | R 2.36 | P 2.08 | S 2.02
F14: L 2.51 | E 3.84 | Y 2.38 | M 2.69 | I 2.64 | Q 3.12 | H 2.73 | N 3.17 | A 3.06 | C 2.53
I23: C 2.36 | E 3.38 | W 2.36 | T 3.5 | L 2.05 | Q 3.31
L22: N 3.09 | Q 3.48 | G 3.03 | R 2.81 | Y 2.54 | F 1.99 | K 3.21 | S 3.05 | A 2.33
T6: D 2.55 | Q 2.12 | E 2.82 | N 3.06 | I 1.63
C20: E 2.98 | P 2.74 | F 1.9 | S 2.59 | M 2.01 | L 2.25 | G 2.49 | R 2.55
I9: M 2.67 | S 2.12 | T 2.92 | W 1.5 | V 2.76 | L 2.03 | A 2.48
I12: Q 3.29 | W 2.4 | F 2 | E 3.5 | L 1.78 | H 2.94 | V 2.6 | S 2.67 | C 2.67
G2: S 2.11 | A 2.02 | T 2.14 | M 2.48 | W 2.51 | R 2.07 | F 1.76 | C 2.17 | E 2.75 | L 2.18 | K 2.31 | I 1.89
G18: L 2.35 | S 2.32 | H 1.74 | E 2.62 | I 2.2 | N 2.18 | P 2.35 | C 1.63
S4: K 2.67 | E 2.35 | N 2.36 | V 2.09 | W 1.83
T1: G 2.19 | M 2.43 | V 1.87 | Q 2.79 | C 1.53 | I 1.79 | F 1.88
T3: S 1.9 | Y 1.94 | D 2.46 | F 1.61 | P 2.46 | I 1.83 | E 2.55 | A 2.15 | L 2.17 | C 1.98 | V 1.87

Variants of: B2
Experiment: as above
Conditions: c terminus: a fixed tail appended

Protein stability index of substitutions, site by site:
Y1: N 3.45 | R 2.94 | F 1.96 | L 1.55 | S 2.93 | P 3.59 | I 1.52 | K 2.88 | Q 3.45 | A 3.3 | E 4.59 | V 2.27 | G 3.95 | M 2.1 | H 2.56 | D 4.17 | C 2.23 | T 3.08
T7: P 1.77 | K 1.58 | L 1.64 | S 3.16 | N 2.34 | C 1.64 | D 2.44 | F 1.81 | H 2.35 | Q 2.07 | Y 2.24 | M 1.67 | A 2.2 | V 1.72 | R 1.86 | E 2.58 | I 1.84 | G 1.96
S3: D 1.98 | H 1.5 | N 2.23 | W 1.54 | Q 2.3 | R 1.79 | V 1.62 | Y 2.13 | G 1.85 | M 1.77 | I 1.61 | L 1.77 | K 1.96 | C 1.96 | F 1.8 | P 1.97 | E 1.67 | T 1.61 | A 2.69
F5: N 3.02 | G 3.23 | K 2.84 | V 1.9 | D 3.68 | R 1.6 | T 2.12 | W 1.32 | P 1.89 | Y 1.62 | Q 2.53 | L 1.81 | C 2.24 | M 2.62 | S 2.73 | A 2.01 | I 1.94 | E 4.08 | H 2.34
Y4: N 2.21 | H 2.4 | E 1.63 | A 2.2 | F 1.86 | Q 2.65 | P 2.19 | R 2.14 | G 3.06 | K 1.52 | T 2.98 | M 1.48 | V 1.57 | L 1.93 | I 2.27 | C 1.73 | D 2.24 | S 2
K6: Y 1.66 | V 2.83 | W 2.18 | Q 2.53 | P 1.81 | T 2.67 | E 1.85 | A 1.96 | H 2.24 | C 1.51 | I 1.91 | S 1.74 | G 2.09 | M 2.1 | R 1.82 | D 2.01 | L 2.3
Q2: L 1.9 | P 2.26 | S 2.5 | M 2.14 | V 1.54 | C 1.88 | N 2.28 | R 2.25 | Y 2.04 | I 1.57 | A 2.1 | W 2.39 | H 3.43 | T 1.59 | K 2.54 | E 3.07 | G 2.12 | F 2.53 | D 2.13
I8: R 2.09 | Y 2.52 | M 2.26 | Q 1.37 | W 1.42 | G 1.48 | C 1.57 | D 2.59 | E 2.6 | P 2.24 | K 2.47 | T 1.35 | H 1.62 | S 1.77 | L 1.98 | V 2.85 | F 2.23 | A 2.26
E9: A 1.77 | I 2 | D 2.25 | C 1.87 | F 1.73 | G 1.64 | L 1.53 | K 2.2 | N 2.45 | M 3.64 | H 2.46
